Test results reported in publication PMC11488486.

Tests used:
[1] = target: UCHL1 R178Q (from pGEX-6p-1) (human) (UniProt P09936)
[2] = target: UCHL1, wild type (from pGEX-6p-1) (human) (UniProt P09936)

KM of UCHL1-catalyzed hydrolysis of Ub-Rho (Michaelis-Menten kinetics) [1]: 0.17 µM | KM of UCHL1-catalyzed hydrolysis of Ub-Rho (Michaelis-Menten kinetics) [2]: 0.03 µM
Substance: Ub-Rhodamine
